We go through 60 sequences from the supplement of paper PMC7877785.

± gives the uncertainty stated by the source.

A short description of the data set: self-splicing fitness, log relative to wild type (ln ratio); higher = more splicing; Tetrahymena group I intron in knt gene, E. coli kanamycin selection, DiMSum; sequences stand for … in CUCUCU…GGAGGGAAAAGUUAUCAGGCAUGCACCUGGUAGCUAGUCUUUAAACCAAUAGAUUGCAUCGGUUUAAAAGGCAAGACCGUCAAAUUGCGGGAAAGGGGUCAACAGCCGUUCAGUACCAAGUCUCAGGGGAAACUUUGAGAUGGCCUUGCAAAGGGUAUGGUAAUAAGCUGACGGACAUGGUCCUAACCACGCAGCCAAGUCCUAAGUCAACAGAUCUUCUGUUGAUAUGGAUGCAGUUCACAGACUAAAUGUCGGUCGGGGAAGAUGUAUUCUUCUCAUAAGAUAUAGUCGGACCUCUCCUUAAUGGGAGCUAGCGGAUGAAGUGAUGCAACACUGGAGCCGCUGGGAACUAAUUUGUAUGCGAAAGUAUAUUGAUUAGUUUUGGAGUACUCGUGGUCG
The essentials:
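Colonies from six replicate transformations of E. coli BL21(DE3) were pooled and amplicon-sequenced on an Illumina HiSeq 2500. The library placed an intron with all eight P1ex-region nucleotides randomised inside the knt kanamycin-resistance gene on pET-22b(+), and cells grew overnight at 37°C or 30°C on LB agar with or without 25 μg/mL kanamycin (plus 100 μg/mL carbenicillin, 50 μM IPTG, 0.2% rhamnose). Fitness is the DiMSum error-weighted combination of wild-type-normalised replicate fold changes, kanamycin versus none.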

Take AAUUAGCAAUAUUACGCCGU: the “self-splicing fitness (ln)” value reads like this: (30 °C) -0.928 ± 0.23; (37 °C) -0.523 ± 0.26.

GCAUAGCAAUAUUACGAAAC: the “self-splicing fitness (ln)” value (30 °C) is -2.18 ± 0.12 and the “self-splicing fitness (ln)” value (37 °C) was -0.684 ± 0.1.

UGGGAGCAAUAUUACGCUGU: for the setting “37 °C”, the “self-splicing fitness (ln)” value was -1.2 ± 0.41.

UGAAAGCAAUAUUACGGAGG: the “self-splicing fitness (ln)” value is, setting by setting: (30 °C) -3.75 ± 0.2; (37 °C) -2.72 ± 0.26.

CAUCAGCAAUAUUACGAUCU: the “self-splicing fitness (ln)” value runs as follows: (30 °C) -0.778 ± 0.06; (37 °C) -0.771 ± 0.087.

Turning to AAGAAGCAAUAUUACGUGAA, the “self-splicing fitness (ln)” value by setting is: (30 °C) -2.16 ± 0.1; (37 °C) -0.97 ± 0.091.

Regarding UGUUAGCAAUAUUACGGAGU, the “self-splicing fitness (ln)” value (37 °C) is -2.73 ± 0.27.

Turning to CCCUAGCAAUAUUACGCAGG, the “self-splicing fitness (ln)” value was -3.06 ± 0.22 (30 °C) and -3.3 ± 0.3 (37 °C).

In the case of GAAAAGCAAUAUUACGGGUA, the “self-splicing fitness (ln)” value (30 °C) is -1.29 ± 0.1 and the “self-splicing fitness (ln)” value (37 °C) is -0.306 ± 0.095.

In the case of CAAUAGCAAUAUUACGAUCG, the “self-splicing fitness (ln)” value is 0.123 ± 0.069 (30 °C) and -0.0654 ± 0.083 (37 °C).

For the sequence GGACAGCAAUAUUACGAUGU, the “self-splicing fitness (ln)” value is -2.12 ± 0.055 (30 °C) and -0.961 ± 0.057 (37 °C).

With AGGCAGCAAUAUUACGAUCA, the “self-splicing fitness (ln)” value is, setting by setting: (30 °C) -0.829 ± 0.13; (37 °C) -0.234 ± 0.15.

On to UACCAGCAAUAUUACGCAGC, for which the “self-splicing fitness (ln)” value runs as follows: (30 °C) -2.72 ± 0.18; (37 °C) -1.87 ± 0.23.

Regarding AUGAAGCAAUAUUACGUAUC, the “self-splicing fitness (ln)” value is -4.1 ± 0.24 (30 °C) and -1.99 ± 0.18 (37 °C).

For UGCAAGCAAUAUUACGUGCG, the “self-splicing fitness (ln)” value runs as follows: (30 °C) -2.86 ± 0.18; (37 °C) -1.94 ± 0.18.

For UCCCAGCAAUAUUACGAUCU, the “self-splicing fitness (ln)” value is, setting by setting: (30 °C) -3.77 ± 0.23; (37 °C) -1.95 ± 0.24.

Regarding UUAGAGCAAUAUUACGAUGA, the “self-splicing fitness (ln)” value is 0.174 ± 0.1 (30 °C) and 0.371 ± 0.14 (37 °C).

As to UACUAGCAAUAUUACGACUA, the “self-splicing fitness (ln)” value came out at 0.113 ± 0.097 (30 °C) and 0.792 ± 0.11 (37 °C).

Turning to AGGAAGCAAUAUUACGGAAC, the “self-splicing fitness (ln)” value (30 °C) is -3.47 ± 0.26 and the “self-splicing fitness (ln)” value (37 °C) was -2.96 ± 0.31.

Take CUUAAGCAAUAUUACGACAG: the “self-splicing fitness (ln)” value is 0.325 ± 0.096 (30 °C) and -0.266 ± 0.12 (37 °C).

Regarding CAGGAGCAAUAUUACGGAUU, the “self-splicing fitness (ln)” value by setting is: (30 °C) -3.18 ± 0.23; (37 °C) -2.52 ± 0.37.

Regarding UGUAAGCAAUAUUACGCCAA, the “self-splicing fitness (ln)” value is, setting by setting: (30 °C) -2.77 ± 0.26; (37 °C) -1.34 ± 0.2.

ACAUAGCAAUAUUACGUCGA: the “self-splicing fitness (ln)” value runs as follows: (30 °C) -1.95 ± 0.18; (37 °C) -1.64 ± 0.15.

For the sequence AGGUAGCAAUAUUACGCAGA, the “self-splicing fitness (ln)” value reads like this: (30 °C) -2.681 ± 0.023; (37 °C) -1.59 ± 0.034.

For CAAAAGCAAUAUUACGGUCG, the “self-splicing fitness (ln)” value reads like this: (30 °C) 0.0608 ± 0.056; (37 °C) -0.107 ± 0.063.

Regarding GGCGAGCAAUAUUACGUUGG, the “self-splicing fitness (ln)” value runs as follows: (30 °C) -3.75 ± 0.32; (37 °C) -2.92 ± 0.35.

For GUCUAGCAAUAUUACGCCGG, the “self-splicing fitness (ln)” value is, setting by setting: (30 °C) -3.17 ± 0.33; (37 °C) -2.31 ± 0.33.

As for UCAUAGCAAUAUUACGAUCG, the “self-splicing fitness (ln)” value is -0.885 ± 0.09 (30 °C) and -0.426 ± 0.12 (37 °C).

As for CUUGAGCAAUAUUACGGGGC, the “self-splicing fitness (ln)” value is -3.82 ± 0.2 (30 °C) and -0.729 ± 0.17 (37 °C).

On to UACAAGCAAUAUUACGGACA, for which the “self-splicing fitness (ln)” value reads like this: (30 °C) -0.516 ± 0.087; (37 °C) 0.0805 ± 0.083.

For UUUCAGCAAUAUUACGCGUA, the “self-splicing fitness (ln)” value (30 °C) was -0.663 ± 0.086 and the “self-splicing fitness (ln)” value (37 °C) is -0.289 ± 0.088.

For the sequence UAAUAGCAAUAUUACGAUCC, for the setting “30 °C”, the “self-splicing fitness (ln)” value is -3.33 ± 0.44.

Take UGCCAGCAAUAUUACGCCUU: the “self-splicing fitness (ln)” value by setting is: (30 °C) -1.93 ± 0.13; (37 °C) -2.29 ± 0.18.

Take AAAGAGCAAUAUUACGUUUC: the “self-splicing fitness (ln)” value (30 °C) was -3.41 ± 0.18 and the “self-splicing fitness (ln)” value (37 °C) was -2.55 ± 0.24.

For AGGCAGCAAUAUUACGACGA, the “self-splicing fitness (ln)” value is -0.555 ± 0.12 (30 °C) and -0.00249 ± 0.14 (37 °C).

Regarding GCGGAGCAAUAUUACGAGGG, the “self-splicing fitness (ln)” value runs as follows: (30 °C) -4.49 ± 0.36; (37 °C) -2.93 ± 0.34.

For the sequence GGGUAGCAAUAUUACGCCCG, the “self-splicing fitness (ln)” value runs as follows: (30 °C) -1.88 ± 0.25; (37 °C) -1.32 ± 0.17.

Turning to UCUAAGCAAUAUUACGUGAU, the “self-splicing fitness (ln)” value (30 °C) is -4.27 ± 0.22 and the “self-splicing fitness (ln)” value (37 °C) is -2.69 ± 0.18.

As to ACCUAGCAAUAUUACGGUCU, the “self-splicing fitness (ln)” value by setting is: (30 °C) -1.69 ± 0.096; (37 °C) -0.98 ± 0.11.

With UGAGAGCAAUAUUACGCGUA, the “self-splicing fitness (ln)” value runs as follows: (30 °C) -2.26 ± 0.26; (37 °C) -2.4 ± 0.31.

As to CGCAAGCAAUAUUACGCCAG, the “self-splicing fitness (ln)” value runs as follows: (30 °C) -1.01 ± 0.094; (37 °C) -0.582 ± 0.13.

With GCACAGCAAUAUUACGGAAA, the “self-splicing fitness (ln)” value was -2.39 ± 0.2 (30 °C) and 0.239 ± 0.16 (37 °C).

In the case of GGAGAGCAAUAUUACGGACU, the “self-splicing fitness (ln)” value reads like this: (30 °C) -1.52 ± 0.13; (37 °C) -0.526 ± 0.17.

As to CUUAAGCAAUAUUACGUGAA, the “self-splicing fitness (ln)” value runs as follows: (30 °C) -2.87 ± 0.12; (37 °C) -2.55 ± 0.29.

For CGCUAGCAAUAUUACGGUGU, the “self-splicing fitness (ln)” value is -3.54 ± 0.15 (30 °C) and -2.22 ± 0.21 (37 °C).

As to CAUUAGCAAUAUUACGGGGU, the “self-splicing fitness (ln)” value reads like this: (30 °C) -3.26 ± 0.17; (37 °C) -2.25 ± 0.17.

On to CAGCAGCAAUAUUACGCUUC, for which the “self-splicing fitness (ln)” value (30 °C) was -3.43 ± 0.19 and the “self-splicing fitness (ln)” value (37 °C) is -2.63 ± 0.28.

With CCGUAGCAAUAUUACGACCG, the “self-splicing fitness (ln)” value was -0.302 ± 0.12 (30 °C) and 0.31 ± 0.2 (37 °C).

As to AGGCAGCAAUAUUACGGGUA, the “self-splicing fitness (ln)” value (30 °C) was -2.35 ± 0.15 and the “self-splicing fitness (ln)” value (37 °C) is -1.05 ± 0.11.

Turning to GCAGAGCAAUAUUACGGUGA, the “self-splicing fitness (ln)” value runs as follows: (30 °C) -2.68 ± 0.22; (37 °C) -2.53 ± 0.24.

As to AAGUAGCAAUAUUACGCGCA, the “self-splicing fitness (ln)” value runs as follows: (30 °C) -0.196 ± 0.11; (37 °C) 0.0802 ± 0.13.

In the case of UCUCAGCAAUAUUACGUGUC, the “self-splicing fitness (ln)” value runs as follows: (30 °C) -3.41 ± 0.14; (37 °C) -3.2 ± 0.17.

On to AAGAAGCAAUAUUACGGUGA, for which the “self-splicing fitness (ln)” value by setting is: (30 °C) -1.11 ± 0.078; (37 °C) -0.329 ± 0.092.

For the sequence UCUGAGCAAUAUUACGUAGA, the “self-splicing fitness (ln)” value is -0.966 ± 0.1 (30 °C) and -0.205 ± 0.14 (37 °C).

Turning to UACGAGCAAUAUUACGGGGG, the “self-splicing fitness (ln)” value was -4.08 ± 0.29 (30 °C) and -3.14 ± 0.34 (37 °C).

On to CGAGAGCAAUAUUACGUAGU, for which the “self-splicing fitness (ln)” value (30 °C) was -2.78 ± 0.3 and the “self-splicing fitness (ln)” value (37 °C) was -1.7 ± 0.27.

As to GAGAAGCAAUAUUACGGUAC, the “self-splicing fitness (ln)” value runs as follows: (30 °C) -2.92 ± 0.23; (37 °C) -1.54 ± 0.21.

Take CUGAAGCAAUAUUACGUUAU: the “self-splicing fitness (ln)” value is -4.59 ± 0.23 (30 °C) and -3.63 ± 0.37 (37 °C).

As for GGGAAGCAAUAUUACGGAGC, the “self-splicing fitness (ln)” value (30 °C) was -1.91 ± 0.21 and the “self-splicing fitness (ln)” value (37 °C) is -1.3 ± 0.21.

Turning to UUUCAGCAAUAUUACGGGCA, the “self-splicing fitness (ln)” value reads like this: (30 °C) -0.321 ± 0.076; (37 °C) -0.0917 ± 0.085.
